Data taken from patent US7977317B2, “Compositions and methods for modulating blood-brain barrier transport” (Raptor Pharmaceutical Inc., priority 2001, dated 2011).

B1: p97: recombinant human melanotransferrin (p97), provided by Synapse Technologies (protein, UniProt P08582 20-709, looked up)
Melanotransferrin: GMEVRWCATSDPEQHKCGNMSEAFREAGIQPSLLCVRGTSADHCVQLIAAQEADAITLDGGAIYEAGKEHGLKPVVGEVYDQEVGTSYYAVAVVRRSSHVTIDTLKGVKSCHTGINRTVGWNVPVGYLVESGRLSVMGCDVLKAVSDYFGGSCVPGAGETSYSESLCRLCRGDSSGEGVCDKSPLERYYDYSGAFRCLAEGAGDVAFVKHSTVLENTDGKTLPSWGQALLSQDFELLCRDGSRADVTEWRQCHLARVPAHAVVVRADTDGGLIFRLLNEGQRLFSHEGSSFQMFSSEAYGQKDLLFKDSTSELVPIATQTYEAWLGHEYLHAMKGLLCDPNRLPPYLRWCVLSTPEIQKCGDMAVAFRRQRLKPEIQCVSAKSPQHCMERIQAEQVDAVTLSGEDIYTAGKTYGLVPAAGEHYAPEDSSNSYYVVAVVRRDSSHAFTLDELRGKRSCHAGFGSPAGWDVPVGALIQRGFIRPKDCDVLTAVSEFFNASCVPVNNPKNYPSSLCALCVGDEQGRNKCVGNSQERYYGYRGAFRCLVENAGDVAFVRHTTVFDNTNGHNSEPWAAELRSEDYELLCPNGARAEVSQFAACNLAQIPPHAVMVRPDTNIFTVYGLLDKAQDLFGDDHNKNGFKMFDSSNYHGQDLLFKDATVRAVPVGEKTTYRGWLGLDYVAALEGMSSQQC
B2: lactoferrin: lactoferrin (Lf), LRP ligand used as competitor (protein, UniProt P02788 20-710, looked up)
Lactotransferrin: GRRRSVQWCAVSQPEATKCFQWQRNMRKVRGPPVSCIKRDSPIQCIQAIAENRADAVTLDGGFIYEAGLAPYKLRPVAAEVYGTERQPRTHYYAVAVVKKGGSFQLNELQGLKSCHTGLRRTAGWNVPIGTLRPFLNWTGPPEPIEAAVARFFSASCVPGADKGQFPNLCRLCAGTGENKCAFSSQEPYFSYSGAFKCLRDGAGDVAFIRESTVFEDLSDEAERDEYELLCPDNTRKPVDKFKDCHLARVPSHAVVARSVNGKEDAIWNLLRQAQEKFGKDKSPKFQLFGSPSGQKDLLFKDSAIGFSRVPPRIDSGLYLGSGYFTAIQNLRKSEEEVAARRARVVWCAVGEQELRKCNQWSGLSEGSVTCSSASTTEDCIALVLKGEADAMSLDGGYVYTAGKCGLVPVLAENYKSQQSSDPDPNCVDRPVEGYLAVAVVRRSDTSLTWNSVKGKKSCHTAVDRTAGWNIPMGLLFNQTGSCKFDEYFSQSCAPGSDPRSNLCALCIGDEQGENKCVPNSNERYYGYTGAFRCLAENAGDVAFVKDVTVLQNTDGNNNEAWAKDLKLADFALLCLDGKRKPVTEARSCHLAMAPNHAVVSRMDKVERLKQVLLHQQAKFGRNGSDCPDKFCLFQSETKNLLFNDNTECLARLHGKTTYEKYLGPQYVAGITNLKKCSTSPLLEACEFLRK

System: human brain capillaries
Assay: Accumulation/uptake of [125I]-p97 in isolated human brain capillaries
Type: binding
Conditions: for Inhibition of [125I]-p97 binding/accumulation in human brain capillaries: competitor 5 micromolar, 100 nM p97, 1 h at 37° C. (FIG. 5)
Method: FIG. 5. Accumulation of p97 in human brain capillaries. Accumulation of [^125I]-p97 was measured at 37° C. for 1 h in isolated human brain capillaries (100 μg/assay). The incubation medium contained [^125I]-p97 and a final concentration of 100 nM p97 in Ringer/Hepes solution. The accumulation of [^125I]-p97 was performed in the presence or absence of 5 μm cold-p97, holo-transferrin or lactoferrin. […] The suspension was filtered under vacuum through a […] pore size Millipore filter. The filter was rinsed with 8 ml of stop solution, and the radioactivity was counted. Nonspecific binding of the radioactivity to the capillaries was determined by the addition of the ice-cold stop solution to the capillaries before adding the incubation medium. This value was subtracted from accumulation values obtained following an 1 h incubation. The results were expressed as ng of [^125I]-p97 accumulated per μg of brain capillaries.
FIG. 16 illustrates the identification of a p97 receptor according to ligand specificity. FIG. 16a, Uptake of [^125I]-p97 into human brain capillaries. The uptake of [^125I]-p97 at 100 nM (control) into isolated human brain capillaries was measured for 1 h at 37° C. in the presence of a 50-fold molar excess of unlabelled p97, human holo-transferrin or human lactoferrin. (*[…] Student's t-test (n=5); FIG. 16b, Effect of RAP on [^125I]-p97 transcytosis across BBCEC monolayers. Apical-to-basal transport of [^125I]-p97 was measured in the presence (closed circles) or absence (open circles) of RAP (25 μg/ml) (n=5); FIG. 16c, Inhibition of bovine [^125I]-lactoferrin transport by p97. Transcytosis of bovine [^125I]-lactoferrin (50 nM) was measured in the presence (closed circles) or absence (open circles) of unlabelled p97 (5 μM) at 37° C. (n=3).
A. Isolation of human brain capillaries. […]
B. p97 accumulation in human brain capillaries. […] Accumulation of [^125I]-p97 was measured at 37° C. for 1 h in isolated human brain capillaries (100 μg/assay). […]

Row | Molecule | Inhibition of [125I]-p97 binding/accumulation in human brain capillaries | Competition with p97 for receptor binding in human brain capillaries, repeat experiment (performed identically to FIG. 5 (FIG. 6))
1 | B1 | significantly inhibits | 
2 | B2 | significantly inhibits | competes
